Results from article PMC7703470 (Biosensors & Bioelectronics, 2020).

B1: 12H1 scFv-Fc antibody (scFv, V domains shown)
VH: AVTLDESGGGLQTPGGTLSLVCKASGFTFSDRGMHWVRQAPGKGLEWVAGIRGDGSYTDYAPAVKGRATISRDNGQSTVRLQLNNLRAEDTATYYCAKSSYKCSTWSCRGYESDSIDAWGHGTEVIVSS
VL: LTQPSSVSANLGGTVKMTCSGGSSGYGWYQQKSPGSAPVTLIYYNDKRPSGIPSRFSGSKSDSTGTLTITGVQAEDEAVYYCGNTDSSYVGMFGAGTTLTVL
B2: 1G5 scFv-Fc antibody (scFv, V domains shown)
VH: AVTLDESGGGLQTPGGALSLVCKASGFTFSSYGMFWVRQAPGKGLEFVASITNTGSYTTYGAAVEGRATISRDNGQSTVRLQLNNLRAEDTAIYYCAKTSCNNCGWSGPGYIDAWGHGTEVIVSS
VL: LTQPSSVSANLGGTVKITCSGGGNDYGWYQQKAPGSAPVTVINTNDKRPSDIPSRFSGSKSGSTATLTITGVQAEDEAVYFCGAYDSSTSADIFGAGTTLTVL
B3: 12H8 scFv-Fc antibody (scFv, V domains shown)
VH: AVTLDESGGGLQTPGGGLSLVCKASGFTFSNYGMDWVRQAPGKGLEWVAGIDNDGSGRGYGAAVKGRATISRDNGQSTVRLQLNNLRAEDTATYYCAKSTYGGRGCCDTTDAWGHGTEVIVSS
VL: LTQPSSVSANPGETVKITCSGGGSWYGWFQQKSPGSAPVTVINANTNRPSDIPSRFSGSKSGSTGTLTITGVQADDEAVYFCGSYDSSTDSGIFGAGTTLTVL
B4: 12B3 scFv-Fc antibody (scFv, V domains shown)
VH: AVTLDESGGGLRTPRGALSLVCKASGFSFSDHGMAWVRQAPGKGLEWVAGISSGGSGTEYGAAVKGRATISRDNGQSTVRLQLNNLRAEDTGTYYCAKTTSPYCGWSGSLDYDCGAEDIDAWGHGTEVIVSS
VL: LTQPSSVSANLGETVKITCSGDSNYYGWYQQKSPGSAPVTVIYDNAKRPSNIPSRFSGSKSGSTNTLTITGVQAEDEAVYFCGGWDSDTGTFGAGTTLTVL

Target: SARS-CoV-2 nucleocapsid protein (NP) (Severe acute respiratory syndrome …, UniProt P0DTC9)
Test: BLI

Binder | Kd [nM]
B1 | 18.3
B2 | 2.86
B3 | 1.31
B4 | 8.47
